Experimental findings from patent publication US20110076705A1 are described below.

The test addresses 2D9-binding PAGs (immuno-affinity purified PAGs used as ELISA standards). The experiment in a line: sandwich ELISA on 2D9-coated plates with immuno-affinity purified PAG standards, log-logit transformation, SoftMax. For orientation: In an ELISA, binding on a coated surface is turned into a signal by an enzyme label.

B1: monoclonal antibody 2D9 (antibody, mouse IgG1, kappa, V domains shown)
VH: QVQLQQSGAELMKPGASVKISCKATGYIFSNYWMEWVKQRPGHGLEWIGEILPGSDITNYNEKFKDKATFTADSSSNTAYMQLSSLTSEDSAVYYCARAGSGYYGVYYYAMDYWGQGTSVTVSS
VL: DVLMTQTPLSLPVSLGDQASISCRSRQSIVHSNGNTYLEWFLQKPGQSPKLLIYKVSNRFSGVPDRFSGSGSGTDFTLKISRVEAEDLGVYYCFQGSHVPLTFGAGTKLELKR
Broadly, the Kd is the concentration at which binding is half-saturated. Low values mean higher affinity, high ones lower affinity. In the case of B1, the Kd was 900 pM.
